Source: publication PMC8452626

Target: Rabbit skeletal actin (unoxidized) (rabbit) (UniProt P68135)
Test: other fluorescence titration; profilin stock titrated into 0.15 uM actin; quenching of the intrinsic tryptophan fluorescence of actin, excitation 295 nm, emission 330 nm; 5 mM PIPES pH 7, 0.2 mM CaCl2, 0.2 mM ATP, 0.5 mM DTT (G-buffer conditions)

Kd: 0.5 µM
Substance: human profilin-1 (from UniProt P07737 1-140) (natural protein; other documents disagree on this pair)
